According to US20110059504A1 (GENERAL HOSPITAL, published 2011):
Residue numbers refer to the chain shown, from its start. Numbers in names are those of the source.

B1: M1-1, E. coli-produced (designed binder)
chain: MTIPEIIIKVRGTQVVGSDMTVIVEFTNPLKETLRNVWVHLDGPGVTRPMKKMFPAIPMNHKVQWEEVVRPWVSGHRKLIASMPQLFHIHVYGELDVQIQRRHHHHHH
B2: 45927-B3 (designed binder)
chain: MTIPEIIIKVRGTQVVGSDMTVIVEFTNPLKETLRNVWVHLDGPGVTRPMKKMFLKIPGCSTVQWEEVVRPWVSGHRKLIASMSMLGLPFSLRFIPVYGELDVQIQRRDYKDDDDK
notes: group M1-Aext; extended FG loop; also called Mext (clone ID)
B3: 45927-A3 (designed binder)
chain: B2 chain with P58L
notes: group M1-Aext
B4: 61362-B8 (I23L) (designed binder)
chain: MTIPEIIIKVRGTQVVGSDMTVLVEFTIPLQDILNVWVHLDGPGVTRPMKKMFFSIRMTPAVQWEEVVRPWVSGHRKLIASMSFHTHRHVYGELDVQIQRRDYKDDDDK
notes: group N4; I23L
B5: 61363-C12 (G45E) (designed binder)
chain: MTIPEIIIKVRGTQVVGSDMTVIVEFTNPLEENLYNVWVHLDGPEVTRPMKKMFYQISTNIPVQWEEVVRPWVSGHRKLIASMGAHTKDHVYGELDVQIQRRDYKDDDDK
notes: group N4; G45E
B6: 61363-C1 (G17D) (designed binder)
chain: MTIPEIIIKVRGTQVVDSDMTVIVEFTDTVLEILRTVWVHLDGPGVTRPMKKMFPHIRPKVTVQWEEVVRPWVSGHRKLIASMLIASLRHVYGELDVQIQRRDYKDDDDK
notes: group N3; G17D
B7: 61362-C6 (designed binder)
chain: MTIPEIIIKVRGTQVVGSDMTVIVEFTNPLNEPLLFVWVHLDGPGVTRPMKKMFRIISPHATVQWEEVVRPWVSGHRKLIASMSIGFQAHVYGELDVQIQRRDYKDDDDK
notes: group N1
B8: 61362-F2 (designed binder)
chain: MTIPEIIIKVRGTQVVGSDMTVIVEFINTSNETLPSVWVHLDGPGVTRPMKKMFPEIPPNSSVQWEAWVSGHRKLIASMIRDSSRHVYGELDVQIQRRDYKDDDDK
notes: group N2; Δ67-70, P71A
B9: 61363-H1 (V15A) (designed binder)
chain: MTIPEIIIKVRGTQAVGSDMTVIVEFTNPLKETLYNVWVHLDGPGVTRPMKKMFWEIRTNHPVQWEEVVRPWVSGHRKLIASMSSNSRDHVYGELDVQIQRRDYKDDDDK
notes: group N4; V15A
B10: 39633-D5 (designed binder)
chain: MTIPEIIIKVRGTQVVGSDMTVIVEFTNPFKETLRSVWVHLDGPGVTRPMKKMFREIPPKTTVQWEEVVRPWVSGHRKLIASMCEPSLDHVYGELDVQIQRRDYKDDDDK
notes: group M4-A50; also called 39633-D5/yes
B11: 39908-F8 (K52R) (designed binder)
chain: B10 chain with K52R, K60E, C84R, E85T, P86Q, S87Y, D89I, V91L
notes: group M1-A50; V91L, K52R
B12: FG6+6 phage clone TNPRRRV / RPRST / WNSRWPAPTRRR (designed binder)
chain: TIPEIIIKVRGTQVVGSDMTVIVEFTNPRRRVLRNVWVHLDGPGVTRPMKKMFREIRPRSTVQWEEVVRPWVSGHRKLIASMSWNSRWPAPTRRRVYGELDVQIQRR
notes: not shown: 6-his, myc tag and C-terminal domain of M13 pIII (phage display fusion)
B13: FG6+6 phage clone GNPTKET / RPRSM / YRPRRGGMRLRH (designed binder)
chain: TIPEIIIKVRGTQVVGSDMTVIVEFGNPTKETLRNVWVHLDGPGVTRPMKKMFREIRPRSMVQWEEVVRPWVSGHRKLIASMSYRPRRGGMRLRHVYGELDVQIQRR
notes: as for B12
B14: FG6+6 phage clone MNPRMEM / HPDSD / RLWTLWMARWRW (designed binder)
chain: TIPEIIIKVRGTQVVGSDMTVIVEFMNPRMEMLRNVWVHLDGPGVTRPMKKMFREIHPDSDVQWEEVVRPWVSGHRKLIASMSRLWTLWMARWRWVYGELDVQIQRR
notes: as for B12
B15: FG6+6 phage clone SNPLSRP / RPHSN / SRSLWLSIGKRH (designed binder)
chain: TIPEIIIKVRGTQVVGSDMTVIVEFSNPLSRPLRNVWVHLDGPGVTRPMKKMFREIRPHSNVQWEEVVRPWVSGHRKLIASMSSRSLWLSIGKRHVYGELDVQIQRR
notes: as for B12
B16: FG6+6 phage clone TNPLRGT / PPNVK / GLSTAGRWKRVR (designed binder)
chain: TIPEIIIKVRGTQVVGSDMTVIVEFTNPLRGTLRNVWVHLDGPGVTRPMKKMFREIPPNVKVQWEEVVRPWVSGHRKLIASMSGLSTAGRWKRVRVYGELDVQIQRR
notes: as for B12
B17: FG6 phage clone ANPIKHM / RPTAG / LGVLRR (designed binder)
chain: TIPEIIIKVRGTQVVGSDMTVIVEFANPIKHMLRNVWVHLDGPGVTRPMKKMFREIRPTAGVQWEEVVRPWVSGHRKLIASMSLGVLRRVYGELDVQIQRR
notes: as for B12
B18: FG6 phage clone RRPTKGN / GPGQV / LGMLRR (designed binder)
chain: B17 chain with A26R, N27R, I29T, H31G, M32N, R57G, T59G, A60Q, G61V, V86M
notes: as for B12
B19: FG6 phage clone PSPFIEN / RPECI / RGWLRS (designed binder)
chain: TIPEIIIKVRGTQVVGSDMTVIVEFPSPFIENLRNVWVHLDGPGVTRPMKKMFREIRPECIVQWEEVVRPWVSGHRKLIASMSRGWLRSVYGELDVQIQRR
notes: as for B12
B20: FG6 phage clone TIPHRGR / QPNVP / RAFLRH (designed binder)
chain: TIPEIIIKVRGTQVVGSDMTVIVEFTIPHRGRLRNVWVHLDGPGVTRPMKKMFREIQPNVPVQWEEVVRPWVSGHRKLIASMSRAFLRHVYGELDVQIQRR
notes: as for B12
B21: FG6 phage clone INPLQVS / GPSSA / IYRYGL (designed binder)
chain: TIPEIIIKVRGTQVVGSDMTVIVEFINPLQVSLRNVWVHLDGPGVTRPMKKMFREIGPSSAVQWEEVVRPWVSGHRKLIASMSIYRYGLVYGELDVQIQRR
notes: as for B12

What follows are binders tested against T1, human myostatin (human, UniProt O14793 267-375, biotinylated in selections and radioactive assays (site not stated)) (assay: cell-based or functional assay).
T1 sequence (looked up): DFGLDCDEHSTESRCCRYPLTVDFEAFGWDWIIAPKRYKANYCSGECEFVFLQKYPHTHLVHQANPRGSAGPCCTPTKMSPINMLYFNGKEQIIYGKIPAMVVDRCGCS
For B1, the “EC50 (read off the curve); blocking of myostatin-induced inhibition of MPC-11 proliferation” value was roughly 20 nM.

Each binder was assayed against T1, human myostatin (assay: radioactive equilibrium binding assay).
In the case of B2, the Kd is reported as 53 to 86 nM.
B3 was tested, and the Kd was 53 to 86 nM.

The binders below were run against T2, streptavidin beads (M-280 beads) (UniProt P22629 37-163, limits assumed) (assay: radioactive equilibrium binding assay).
T2 construct: Capture beads used as negative control
T2 sequence (P22629 37-163 limits assumed): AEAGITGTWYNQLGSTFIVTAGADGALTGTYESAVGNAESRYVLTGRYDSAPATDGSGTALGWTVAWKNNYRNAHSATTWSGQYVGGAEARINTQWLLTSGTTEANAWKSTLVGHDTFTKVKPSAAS
B4: no binding.
B5: no binding.
B6: no binding.
B7: no binding.
B8: no binding.
B9: no binding.

The binders below were run against T3, human β-NGF (human, UniProt P01138 122-241, biotinylated (site not stated)) (assay: radioactive equilibrium binding assay).
T3 construct: also called biotinylated human β-NGF; nerve growth factor
T3 sequence (P01138 122-241 limits assumed): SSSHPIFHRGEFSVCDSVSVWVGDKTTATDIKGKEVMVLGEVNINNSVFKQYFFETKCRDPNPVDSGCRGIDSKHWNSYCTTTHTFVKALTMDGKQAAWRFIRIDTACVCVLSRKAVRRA
B4 gave a Kd of less than 100 nM.
B5 showed a Kd of less than 100 nM.
B8 showed a Kd of less than 100 nM.
For B9, the Kd was less than 100 nM.

Molecular target: T1, human myostatin
Experiment: radioactive equilibrium binding assay
Remark: another data set of the same source
Experimental: (§1) Affinities of selected F13β2 binders to biotinylated myostatin were determined in radioactive equilibrium binding assay (FIGS. 11A and 11B; Table 3). ³⁵S-labeled binder proteins from selection pools and single clones were produced in vitro in a rabbit reticulocyte lysate translation kit (Ambion) and purified on M2-agarose (Sigma). Varying concentrations of biotinylated human myostatin (0-100 nM) or other proteins (protein 1: 100 nM; peptide 1: 250 nM; protein 2: 50 nM) were incubated with a constant concentration of the purified binder protein (1 or 2 nM) at 30° C. for 30 min in buffer B (1×PBS, 0.02% Triton X-100 [pH 7.4]). The receptor-binder complexes were captured by using 25 μl of M280 or Protein A (Dynal) (protein 2) magnetic beads for 10 min at room temperature on a Kingfisher instrument (Thermo Fisher Scientific). The beads were washed five times with 100 μl buffer B, and the amount of ³⁵S-methionine remained on the beads was measured by scintillation counting. Data were analyzed by using the GraphPad Prism software (GraphPad Software, Inc., San Diego, Calif.), fitted with a one-site, nonlinear binding equation. For inhibition assay the binding of ³⁵S-labeled proteins to 20 or 25 nM of biotinylated human myostatin was performed in the presence of varying concentrations of inhibitor (human activin receptor IIB/Fc chimera (R&D Systems, Minneapolis, Minn.) (0-250 nM); protein 1 (100 nM), peptide 1 (250 nM), protein 2 (50 nM); proteins, produced in E. coli, M17, M7, M29, M21, M1-1, WT F13β2 (500 nM)).
For B2, the B max was 50.7% and the Kd was 86.7 nM.
Work on B3 yielded a B max of 36.4% and a Kd of 53.2 nM.
B10 showed a B max of 6.91% and a Kd of 8.69 nM.
With B11 the B max was 45.7% and the Kd was 36.6 nM.

Molecular target: T3, human β-NGF
Experiment: radioactive equilibrium binding assay
Remark: another data set of the same source
Experimental: as §1
Selected F13β2 binders were tested for binding to biotinylated β-NGF in radioactive equilibrium binding assay (FIGS. 21A and 21B; Table 4) according to the procedure described for myostatin binders. NGF at concentrations up to 100 nM was incubated with a constant concentration of the purified binder protein (1 or 2 nM) at 30° C. for 1 hour. Affinities to human β-NGF differed greatly between various binders.
Binder B4 has a B max of 2.1% and a Kd of 3.8 nM.
For B5, the B max was 33.6% and the Kd was 36 nM.
For B6, the B max was 1.8% and the Kd was 2.8 nM.
Work on B7 yielded a B max of 5.5% and a Kd of 24 nM.
With B8 the B max was 35.4% and the Kd was 62 nM.
With B9 the B max was 8.4% and the Kd was 22.9 nM.

Each binder was assayed against T4, FcεRI-MBP (UniProt P12319 26-205) (assay: phage ELISA on target-coated Maxisorp wells, anti-M13 pVIII-HRP).
T4 construct: Produced in E. coli; order of the two parts is printed both ways (mbp-FcεRI, FcεRI-MBP); also called mbp-FcεRI; mbpFcεRI
T4 sequence (looked up): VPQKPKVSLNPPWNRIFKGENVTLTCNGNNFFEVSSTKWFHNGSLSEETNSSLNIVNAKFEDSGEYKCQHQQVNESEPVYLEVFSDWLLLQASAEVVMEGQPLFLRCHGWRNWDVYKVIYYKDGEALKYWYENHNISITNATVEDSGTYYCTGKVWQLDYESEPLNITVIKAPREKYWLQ
Experimental: (§2) An Elisa screening was performed after four rounds of selection to identify binding clones. Randomly picked phagemid clones were incubated with target-coated or buffer-coated Maxisorp wells at room temperature for 1 hour. Unbound phage was removed and the wells were washed eight times with PBS pH 7.4, 0.05% Tween-20. Binding was determined with an anti-M13 pVIII antibody-HRP conjugate (GE). […] Varying levels of binding to targets and the Maxisorp surface were also observed in other clones.
B12 was tested, and the “Target Binding” value was 1.73.
For B13, the “Target Binding” value was 4.
B14 was tested, and the “Target Binding” value was 2.35.
In the case of B15, the “Target Binding” value is reported as 3.31.
B16 was tested, and the “Target Binding” value was 4.

These binders were tested against chicken lysozyme (chicken, UniProt P00698 19-147) in the same assay as above.
Chain of chicken lysozyme (P00698 19-147 limits assumed): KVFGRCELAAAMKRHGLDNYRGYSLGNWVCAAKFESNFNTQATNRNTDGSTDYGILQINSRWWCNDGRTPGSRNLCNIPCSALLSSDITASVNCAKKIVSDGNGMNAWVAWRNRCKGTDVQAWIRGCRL
Experimental: as §2
For B17, the “Target Binding” value was 2.83.
For B18, the “Target Binding” value was 2.45.
For B19, the “Target Binding” value was 1.19.
B20 was tested, and the “Target Binding” value was 0.34.
In the case of B21, the “Target Binding” value is reported as 4.
